Laboratory results: paper PMC1784095

What was measured:
[1] = tested on: Crp (Escherichia coli K-12 W3110); test: EMSA; details: 20 uM cAMP; apparent Kd; Crp EMSA: 10 mM Tris-HCl pH 8.0, 50 mM KCl, 1 mM EDTA, 0.1 mM DTT, 50 ug/ml BSA, 10 ug/ml poly(dI-dC), 12.5% glycerol, cAMP (20 uM in Results, 20 mM in Methods …)
[2] = molecular target: T1, ArgR (Escherichia coli K-12 W3110) (UniProt P0A6D0); test: EMSA; details: Crp EMSA: 10 mM Tris-HCl pH 8.0, 50 mM KCl, 1 mM EDTA, 0.1 mM DTT, 50 ug/ml BSA, 10 ug/ml poly(dI-dC), 12.5% glycerol, cAMP (20 uM in Results, 20 mM in Methods …)
T1 sequence: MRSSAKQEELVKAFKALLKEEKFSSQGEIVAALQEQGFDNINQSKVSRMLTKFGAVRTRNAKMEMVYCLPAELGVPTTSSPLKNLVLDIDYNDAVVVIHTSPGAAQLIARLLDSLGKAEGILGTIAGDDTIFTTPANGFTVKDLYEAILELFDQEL

Question: With PgltB -406 to +246 as the substance, how does the Kd [1] read?
Answer: Its Kd is 35 nM.

Question: And the Kd ([2]; 5 mM L-arginine, apparent Kd, Hill 2.0)?
Answer: The Kd was 1.8 nM.

Question: For “AATTCGGCGATGACCTGGATCAATCGTCCCGGCCTGCTTTTATCAACTGCATAATCAATCAAAATTACCGAAATTTCATGCATAATCACATAAATCACTTTTGCTTATCTTGTGTCAGATTTTTTTATCTCCTGATGGATTTTAGGCAAAAACAGTAGCATGAAACGTCATTACCAATTAAGGCAGTATAAAATGCTGGTTTTGTCGTCAGTTCAAGGCAGGATAAGGGTTAACACACCTTTATGACAGTCAGGAATTGACTGTTTCTCTAACGACTTC (double strand) [PgltB -406 to -128]”, which Kd [2] is on record?
Answer: Its Kd is 1.7 nM.
